Columns and labels:
Flag-p66β [1] = biological target: T1, Flag-p66β (UniProt Q8WXI9 1-593); assay: pull-down; p66β alone; relatively high affinity; EMSA: 10 mM Tris pH 7.5, 50 mM KCl, 1 mM DTT, 5 mM MgCl2, 2.5% glycerol, 0.05% NP-40, 50 ng/ul poly(dI.dC), 600 fmol probe, 12 ug GST protein in 20 ul; gel 6% 0.5x TBE 4 C. Pull-down: NeutrAvidin beads, 8 h 4 C, washed in IP buffer (50 mM Tris pH 7.5, 150 mM NaCl, 1% Triton X-100); conditions: protein: recombinant; tags: Flag; label: biotin (probe); blunt
T1 sequence (Q8WXI9 whole entry): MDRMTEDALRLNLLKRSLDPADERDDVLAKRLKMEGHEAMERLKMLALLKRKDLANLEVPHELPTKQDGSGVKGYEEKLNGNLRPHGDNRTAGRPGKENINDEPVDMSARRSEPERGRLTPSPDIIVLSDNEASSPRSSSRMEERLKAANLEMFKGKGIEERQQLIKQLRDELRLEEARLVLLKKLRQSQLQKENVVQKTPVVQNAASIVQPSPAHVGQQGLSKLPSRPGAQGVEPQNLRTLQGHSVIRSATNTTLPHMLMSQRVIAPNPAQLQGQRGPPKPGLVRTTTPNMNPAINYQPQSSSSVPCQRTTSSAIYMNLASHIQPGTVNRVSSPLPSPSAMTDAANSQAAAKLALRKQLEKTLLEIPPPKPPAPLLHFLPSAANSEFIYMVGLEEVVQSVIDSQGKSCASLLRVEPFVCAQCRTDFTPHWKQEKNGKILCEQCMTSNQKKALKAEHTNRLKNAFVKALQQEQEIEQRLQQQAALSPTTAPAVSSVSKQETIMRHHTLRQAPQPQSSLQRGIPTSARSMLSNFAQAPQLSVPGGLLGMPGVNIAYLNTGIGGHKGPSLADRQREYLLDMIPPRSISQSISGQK

GST-Snail [2] = biological target: T2, GST-Snail (UniProt O95863 1-264); assay: EMSA; 5 mM Mg2+, poly(dI.dC); EMSA: 10 mM Tris pH 7.5, 50 mM KCl, 1 mM DTT, 5 mM MgCl2, 2.5% glycerol, 0.05% NP-40, 50 ng/ul poly(dI.dC), 600 fmol probe, 12 ug GST protein in 20 ul; gel 6% 0.5x TBE 4 C. Pull-down: NeutrAvidin beads, 8 h 4 C, washed in IP buffer (50 mM Tris pH 7.5, 150 mM NaCl, 1% Triton X-100); conditions: protein: recombinant; tags: N-terminal GST (pGEX-4T-1); label: biotin (probe); blunt
T2 sequence (O95863 whole entry): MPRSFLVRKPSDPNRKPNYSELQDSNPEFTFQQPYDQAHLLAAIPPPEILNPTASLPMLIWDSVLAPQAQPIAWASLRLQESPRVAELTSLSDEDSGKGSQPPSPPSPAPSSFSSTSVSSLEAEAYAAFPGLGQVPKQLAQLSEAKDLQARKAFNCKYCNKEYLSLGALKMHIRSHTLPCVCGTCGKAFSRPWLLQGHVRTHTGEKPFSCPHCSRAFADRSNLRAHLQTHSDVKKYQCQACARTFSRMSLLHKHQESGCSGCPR

Flag-p66β [3] = biological target: T1, Flag-p66β; assay: competition; unlabeled mutant vs biotinylated WT probe; EMSA: 10 mM Tris pH 7.5, 50 mM KCl, 1 mM DTT, 5 mM MgCl2, 2.5% glycerol, 0.05% NP-40, 50 ng/ul poly(dI.dC), 600 fmol probe, 12 ug GST protein in 20 ul; gel 6% 0.5x TBE 4 C. Pull-down: NeutrAvidin beads, 8 h 4 C, washed in IP buffer (50 mM Tris pH 7.5, 150 mM NaCl, 1% Triton X-100); conditions: protein: recombinant; tags: Flag; 3' overhang 1 nt on strand 1 as printed (reverse strand lacks 5' C)
GST-Snail [4] = biological target: T2, GST-Snail; assay: as above; conditions: protein: recombinant; tags: N-terminal GST (pGEX-4T-1); 3' overhang 1 nt on strand 1 as printed (reverse strand lacks 5' C)

B1: COL6A2-G-box-WT (dsDNA)
DNA 1: GGCCCCCTCCTCCCATCCGCG
DNA 2: CGCGGATGGGAGGAGGGGGCC
B1: binds (Flag-p66β [1]); binds (GST-Snail [2]).

B2: COL6A2-G-box-MT (dsDNA)
DNA 1: GGCCCCCTAATAATATCCGCG
DNA 2: GCGGATATTATTAGGGGGCC
B2: no binding (Flag-p66β [3]); no binding (GST-Snail [4]).
